Laboratory results reported in US20240067950A1, “MEANS AND METHODS FOR DETOXIFYING OCHRATOXIN A” (DSM Austria GmbH, priority 2020, published 2024).

B1: SEQ ID NO: 4: OTA-hydrolyzing polypeptide 4 of the present invention, recombinantly produced in E. coli (protein)
chain: MARDPLPADVRLLIRNNMASAHPQVPTIDGLDSKTQNDVFTAIDAINNDMRDLSLAIHENPELGFKEVKAHANLVKALSKLGFTITNPTSLETAFVATWSNGSGGRTFGFNAEYDALPGIGHACGHNLIAIVAVASAVGCKAAMEKQGISGTIKVIGSPAEEGGGGKIILFNEGVYDGLDACAMAHPGGGMPADGYDGQAPAEGKPASLARAGFIVDFVGKPAHAGAAPWMGVNAVDAAVLGYNGVSMLRQQLEPTVRVHGVIRGPNDWVNNIIPASSHVEYDVRAPDVKQAMAVRNKAIACFESAAHATGCSHTTQSKDKDIYAELRNSIRMAGVYADIMEEVFDQHIQRDGMTTASTDFGNITISACPAVHPMYLIETDGVNHTPEFTAGAATMDSHERSIKVAKGLALLGFKVLTDDVFAKKIKDEFEEQKKRLGA
modifications: OTA hydrolyzing polypeptide 4
notes: OTA-hydrolyzing polypeptide 4 of the present invention, recombinantly produced in E. coli
B2: SEQ ID NO: 3: OTA-hydrolyzing polypeptide 3 of the present invention, recombinantly produced in E. coli (protein)
chain: MARDEIPADVKALIAQTVTALHGLAPPSAEFDDETQDAVFEAIDAIDDAMWDLNKKIHDHPELGFEEHKARANLVAALCKLGFTVTNPSSLPTAFVATYTHGHGGRTFGVDAEYDALRDVGHACGHNLIAVAAVAAAAGLKAALKARNISGTVKLIGSPAEEGGGGKVILLNEGVYDCLDACVMAHPEGGMIGDDYDGSAYVGGPASLARAGFEIEFHGRGAHAGAAPWLGINALDAAVQGYTAVSMLRQQLEPTMRVHGIIQGSEKWAQNIIPSYAKVSYSTRALDVKKTLELRDKTVDCFASAAKATGCTYDVTAPETEVYAELRNNQPLADAYADLMTKAFGQKIERRGMTTASTDFGNVTYHLPAIHPGFTIESETVNHTKGFTEAAGKKDAHERTMKVAKGLAMVGAKFLADDKFAKDVRKAFEKFKREVE
modifications: OTA hydrolyzing polypeptide 3
notes: OTA-hydrolyzing polypeptide 3 of the present invention, recombinantly produced in E. coli
B3: SEQ ID NO: 2: OTA-hydrolyzing polypeptide 2 of the present invention, recombinantly produced in E. coli (protein)
chain: MARDEIPADVKALIAQTVTALHGLAPPSAEFDDETQDAVFEAIDAIDGAMWDLNKKIHDHPELGFKEHKARANLVAALCKLGFTVTNPSSLPTAFVATYTQGHGGRTFGVDAEYDALPEVGHACGHNLIAVAAVAAAAGLKAALKARNIAGTIKLIGSPAEEGGGGKVILLNEGVYDCLDACVMAHPEGGMIGNDYDGSAYVGGPASLARAGFEIEFHGRGAHAGAAPWLGINALDAAVQGYTAVSMLRQQLEPTMRVHGIIQGSEKWAQNIIPSYAKVSYSTRALDVKKTLELRDKTVDCFASAAKATGCTYELTAPETEVYAELRNNEPLADAYADLMTHAFGQKIERRGMTTASTDFGNVTYHVPAIHPGFTIESDTVNHTAGFTEAAGKKGAHERTMKVAKGLAMVGAKFLADDKFAKDVRKAFEKFKKGAQ
modifications: OTA hydrolyzing polypeptide 2
notes: OTA-hydrolyzing polypeptide 2 of the present invention, recombinantly produced in E. coli
B4: SEQ ID NO: 1: OTA-hydrolyzing polypeptide 1 of the present invention, recombinantly produced in E. coli (protein)
chain: MSDHLPADVRDLIRQTMSRLENLVPPSAAFDDETQDAVFEAIDSIDGDMLALNKAIHDNPELGFHEVKAHHHLVQALIKLGFAVTNPTSLPTAFVATWSHGSGGRTFGFNAEYDALPGVGHACGHNLIAIVAVASAAGLKAALKARNIPGTIKVIGSPAEEGGGGKVILLNEGAYDGIDACVMAHPEGGVPGIDDDGSAYTSGPATLARAGFSVELFGKAAHAGAAPWLGVNALDAAVQGYTAVSMLRQQIEPTMRVHGVFDYGKEKWVQNIIPAYAKVEYSTRALDVKSTLELRKKVISCFESAATATGCTHKVSAPETEVYAELRNNVTLADAYADFMTTAFGQKIGRVGITTASTDFGNVTYKMPAIHPGFHLISKGVNHTPEFADAAGTLDAHERAIKVAKGLAMLGAKFLQDDKFAKEVKRKFDEFKKEVGELKLTDNENEVQEVNGVMKQEHIAEQVDEIWL
modifications: OTA hydrolyzing polypeptide 1
notes: OTA-hydrolyzing polypeptide 1 of the present invention, recombinantly produced in E. coli

Tests used:
[1] = Thermostability assay (residual OTA hydrolyzing activity after 10 min heat incubation); type: physicochemical; conditions: 10 min incubation at 45, 55, 65, 75 or 85 ° C.; 0.1 mg/mL in 20 mM Tris-HCl pH 7.5; relative to 4° C. reference aliquot
Procedure: To determine the kinetic stability of the produced enzymes towards temperature, thermostability assays were performed. To this end, purified protein samples were diluted to a protein concentration of 0.1 mg/mL in 20 mM Tris-HCl buffer pH 7.5 and aliquots were incubated in a thermocycler for 10 min at either 45, 55, 65, 75 or 85 ° C. After this incubation, the aliquots were stored at 4° C. until further analysis. A reference aliquot was stored at 4° C. throughout the incubation. Subsequently, all aliquots were assayed for residual OTA hydrolyzing activity using the assay described in Example 2. Residual enzyme activities were calculated relative to the reference aliquot. The temperature range in which 50% of the initial activity was lost after the incubation, in relation to the reference aliquot was determined.

[2] = OTA hydrolyzing activity assay (specific activity); type: biochemical; conditions: 37° C., 200 ng/mL OTA in 100 mM sodium phosphate buffer
Procedure: To determine the specific activity of recombinant target polypeptides produced e.g. as described in Example 1 above in units per liter (U/L), ochratoxin A (OTA) hydrolyzing activity assays were performed. One unit is defined as the amount of enzyme necessary for hydrolysis of 1 μmol or OTA in 1 min when using a starting OTA concentration of 0.495 μM.
OTA hydrolyzing activity assays were set up in a final volume of the reaction mixture of 200 μL, containing the recombinant enzyme preparation (preferably diluted to yield a volumetric activity of 1-10 mU/L), and 200 ng/mL OTA in 100 mM sodium phosphate buffer.
Specific activities were determined at pH 6.0 and pH 7.5. As soon as all components of the reaction mixture were mixed, OTA hydrolysis was followed at 37° C. on a fluorescence spectrophotometer (BioTek Synergy H1 MFD Multimode microplate reader) by following the reduction in fluorescence at ex/em 390 nm/450 nm.
For calculation of the specific activity, the initial linear part of the recorded fluorescence reduction curve was used. In addition to the fluorescence-based method described above, OTA hydrolysis was also determined by using the HPLC-MS method as described by Dellafiora et al. 2020, Toxins 12, 258, essentially confirming the fluorescence-based results. The specific activities for the polypeptides having amino acid sequences of SEQ ID NOs: 1-4 at different pH are shown in Table 1.

[3] = Piglet feeding trial, OTA in plasma and urine by HPLC-MS; type: in vivo, piglets; conditions: for OTA concentration, plasma samples, Day 14 / OTA concentration, urine samples, Day 14: piglets; for % OTA reduction, plasma samples / % OTA reduction, urine samples: day 14
Procedure: To verify the applicability of the produced enzymes as food or feed additive, piglet feeding trials were conducted. To this end, sufficient amounts of the polypeptide of SEQ ID NO: 1 were produced by cultivation of E. coli transformants in bioreactors. The cell broth was homogenized and centrifuged. The supernatant was concentrated, dried by lyophilization and formulated as a powder by grinding. The enzymatic activity of the thus obtained lyophilized powder was determined, and the powder was mixed with feed for the feeding trial as described in the following.
Five piglet groups were studied based on the following five experimental diet setups: 1) Base feed; 2) base feed+50 ppb OTA; 3) base feed+50 ppb OTA+169 mU of the enzyme of SEQ ID NO: 1 per kg of feed; 4) base feed+500 ppb OTA; 5) base feed+500 ppb OTA+169 mU of the enzyme of SEQ ID NO: 1 per kg of feed.
Each trial group consisted of four piglets weighing approximately 7-8 kg, who were coming out from weaning and adapted to solid diet before being fed the experimental diet as described above. The duration of the feeding trial (i.e. actual days of feeding the experimental diet) was fourteen days. Collectively each trial group consumed around 15 kg of feed. No piglets fell sick to any unexpected disease throughout the feeding trial. Urine and blood samples were collected on day 0, just before starting the experimental diet, and on day 14.
Extraction of OTA was performed from plasma and urine samples for subsequent analysis by HPLC-MS. 200 μL of sample was thoroughly mixed with 800 μL of extraction solution (containing 99% of ethyl acetate and 1% of phosphoric acid, 85%) followed by centrifugation at 19000×g for 5 min for phase separation. 50 μL of upper phase was diluted with 50 μL of acetonitrile, followed by HPLC-MS analysis. The H PLC-MS method as described by Dellafiora et al. 2020, Toxins 12, 258 was used to determine the changes in OTA concentration in the samples taken during the trial upon consumption of the experimental diets. The results are shown in Table 3 using the diet setup numbering as indicated above.

[4] = diet setup 3: base feed+50 ppb OTA+169 mU enzyme per kg of feed
[5] = diet setup 5: base feed+500 ppb OTA+169 mU enzyme per kg of feed

Molecule | Temperature range in which 50% of the initial activity was lost [1] | Specific OTA hydrolyzing activity ([2]; pH 6) [U/g] | Specific OTA hydrolyzing activity ([2]; pH 7.5) [U/g] | OTA concentration, plasma samples, Day 14 [3, 4] | OTA concentration, urine samples, Day 14 [3, 4] | % OTA reduction, plasma samples [3, 4] [%] | % OTA reduction, urine samples [3, 4] [%] | OTA concentration, plasma samples, Day 14 [3, 5] | OTA concentration, urine samples, Day 14 [3, 5] | % OTA reduction, plasma samples [3, 5] [%] | % OTA reduction, urine samples [3, 5] [%]
B1 | 45-55 °C | 1.57 | 1.43 | – | – | – | – | – | – | – | –
B2 | 55-65 °C | 0.63 | 1.44 | – | – | – | – | – | – | – | –
B3 | 65-75 °C | 3.53 | 11.01 | – | – | – | – | – | – | – | –
B4 | 45-55 °C | 0.11 | 1.20 | 37 ± 3 | 0.00 | 9 | 100.0 | 350 ± 25 | 25.18 | 15 | 48.4
